Results reported in PMC5669812 (Protein expression and purification, 2017).
Like-named read-outs stand apart in the source and are kept apart here.

Experiments:
[1] = target: T1, MTSL-labeled GroEL^A138C (E. coli, UniProt P0A6F5 2-548, C458A | C519A, MTSL nitroxide spin label on cysteine 138); experiment: negative-stain electron microscopy
[2] = target: T1, MTSL-labeled GroEL^A138C; experiment: negative-stain electron microscopy; remark: listed apart in the source
[3] = target: the molecule itself; experiment: native gel or EMSA

B1: GroES (natural protein)
chain: MNIRPLHDRVIVKRKEVETKSAGGIVLTGSAAAKSTRGEVLAVGNGRILENGEVKPLDVKVGDIVIFNDGYGVKSEKIDNEEVLIMSESDILAIVEA
- stoichiometry N [1]: 1 GroES molecules per GroEL-14mer
- stoichiometry N [2]: 2 GroES molecules per GroEL-14mer

B2: MTS-labeled GroEL^R268C (natural protein, E. coli)
chain: AAKDVKFGNDARVKMLRGVNVLADAVKVTLGPKGRNVVLDKSFGAPTITKDGVSVAREIELEDKFENMGAQMVKEVASKANDAAGDGTTTATVLAQAIITEGLKAVAAGMNPMDLKRGIDKAVTAAVEELKALSVPASDSKAIAQVGTISANSDETVGKLIAEAMDKVGKEGVITVEDGTGLQDELDVVEGMQFDRGYLSPYFINKPETGAVELESPFILLADKKISNIREMLPVLEAVAKAGKPLLIIAEDVEGEALATLVVNTMCGIVKVAAVKAPGFGDRRKAMLQDIATLTGGTVISEEIGMELEKATLEDLGQAKRVVINKDTTTIIDGVGEEAAIQGRVAQIRQQIEEATSDYDREKLQERVAKLAGGVAVIKVGAATEVEMKEKKARVEDALHATRAAVEEGVVAGGGVALIRVASKLADLRGQNEDQNVGIKVALRAMEAPLRQIVLNAGEEPSVVANTVKGGDGNYGYNAATEEYGNMIDMGILDPTKVTRSALQYAASVAGLMITTEAMVTDLPKNDAADLGAAGGMGGMGGMGGMM
modifications: diamagnetic MTS label on cysteine 268
- binding result [3]: binds
